Changes are numbered by the printed parent chain.

For 4 molecules, Kd results are on record in patent US20050003420, “Recycled mutagenesis of restriction endonuclease toward enhanced catalytic activity” (published 2005).

Series [1] concerns the target T1, BsoBI restriction endonuclease (UniProt P70985 P70985:1-323).
T1 sequence: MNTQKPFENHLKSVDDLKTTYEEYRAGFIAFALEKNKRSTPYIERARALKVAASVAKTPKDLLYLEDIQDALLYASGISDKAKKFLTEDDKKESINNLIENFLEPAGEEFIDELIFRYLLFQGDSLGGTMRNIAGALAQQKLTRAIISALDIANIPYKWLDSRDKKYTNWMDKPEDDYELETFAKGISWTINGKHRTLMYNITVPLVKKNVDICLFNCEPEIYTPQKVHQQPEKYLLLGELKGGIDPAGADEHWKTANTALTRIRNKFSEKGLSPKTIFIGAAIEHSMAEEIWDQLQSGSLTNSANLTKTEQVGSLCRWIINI
As to the kind of experiment: filter; 4 mM CaCl2, 100 mM NaCl, pH 7.5, room temp; ±2.0. To be noted: tags: untagged, expressed from pRRS-bsoBIR in E. coli ER2683; chain copies: 2 inferred; label: 33P 5' end. On the procedure:
(§1) The binding condition was in 10 mM Tris-HCl, pH 7.5, 100 mM NaCl, 50 mg/ml BSA, 4 mM CaCl₂ in […] volume. The labeled DNA substrates were diluted to a final scintillation count of 1000-5000 cpm and varying amount of BsoBI or each variant was added. Following incubation at room temperature for 10 min, the bound complex was loaded onto Micropure EZ column (Millipore Corporation, Bedford, Mass.) and spun at 16K g for 1 min. Protein and protein:DNA complexes are bound to the membrane in the Micropure EZ column and only the free unbound DNA is in the flow-through fraction. 180 μl of the flow-through liquid was immediately transferred to scintillation counting vials filled with 1.5 ml OPTI-FLUOR for aqueous samples (Packard, Meriden, Conn.). The radioactivity count from the sample without BsoBI is F₀, and the radioactivity count from sample with BsoBI or each variant is F. The apparent Kd value is calculated from F/F₀ and the BsoBI concentration [E] according to equation [1]. F/F₀=a [Kd/([E]+Kd)]+b a and b are equation fitting parameters, where b is the non-specific flow-through, and a is the maximum change amplitude.
(§2) DNA binding properties of BsoBI endonuclease and variants: To obtain reproducible BsoBI:DNA binding data, a filter binding assay utilizing a microcentrifuge filter was developed. […]

In series [2] the target is T2, BsoBI D246R (UniProt P70985 P70985:1-323, D246R).
T2 sequence: T1 sequence with D246R
As to the kind of experiment: filter; 4 mM CaCl2; ±20. The settings on record: chain copies: 2 inferred; label: 33P 5' end. The protocol: as §1, §2

Series [3] addresses T3, BsoBI D246E (UniProt P70985 P70985:1-323, D246E).
T3 sequence: T1 sequence with D246E
As to the kind of experiment: filter; 4 mM CaCl2; ±20000. To be noted: chain copies: 2 inferred; label: 33P 5' end. On the procedure:
as §1, §2

For series [4], the target named is T4, BsoBI D246A (UniProt P70985 P70985:1-323, D246A).
T4 sequence: T1 sequence with D246A
As to the kind of experiment: filter; 4 mM CaCl2; ±40. The settings on record: chain copies: 2 inferred; label: 33P 5' end. On the procedure:
as §1, §2

For series [5], the target named is T5, BsoBI D246Y (UniProt P70985 P70985:1-323, D246Y).
T5 sequence: T1 sequence with D246Y
As to the kind of experiment: filter; 4 mM CaCl2; ±16. The settings on record: chain copies: 2 inferred; label: 33P 5' end. The protocol:
as §1, §2

Series [6] has as its target T6, BsoBI D246C (UniProt P70985 P70985:1-323, D246C).
T6 sequence: T1 sequence with D246C
As to the kind of experiment: filter; 4 mM CaCl2; ±11. The settings on record: chain copies: 2 inferred; label: 33P 5' end. The protocol: as §1, §2

The target of series [7] is T6, BsoBI D246C. As to the kind of experiment: filter; 4 mM CaCl2; ±9.8. To be noted: chain copies: 2 inferred; label: 33P 5' end. On the procedure: as §1, §2
In series [8] the target is T4, BsoBI D246A. As to the kind of experiment: filter; 4 mM CaCl2; ±4. The settings on record: chain copies: 2 inferred; label: 33P 5' end. On the procedure:
as §1
(§3) DNA binding properties of BsoBI endonuclease and variants: To obtain reproducible BsoBI:DNA binding data, a filter binding assay utilizing a microcentrifuge filter was developed. In the control experiment, more than 99% of the wt BsoBI endonuclease was retained on the filter of the spin column. When labeled duplex DNA was loaded onto the membrane in the absence of protein, more than 95% of the DNA passed through the column. […] The heat-treatment step removed approximately 80% of E. coli proteins. The filter-binding assay was performed for wt BsoBI endonuclease and variants D246A, D246C, D246E, D246R, and D246Y in the presence of Ca⁺⁺. The inclusion of Ca⁺⁺ in the binding buffer stabilizes the protein:DNA complex in DNA mobility shift assays (data not shown) and it was presumed that Ca⁺⁺ does the same in the filter binding assay.

Series [9] deals with T5, BsoBI D246Y. As to the kind of experiment: filter; 4 mM CaCl2; ±4. The settings on record: chain copies: 2 inferred; label: 33P 5' end. On the procedure: as §1, §3
Series [10] concerns the target T1, BsoBI restriction endonuclease. As to the kind of experiment: filter; 4 mM CaCl2, 100 mM NaCl, pH 7.5, room temp; ±0.9. The settings on record: tags: untagged, expressed from pRRS-bsoBIR in E. coli ER2683; chain copies: 2 inferred; label: 33P 5' end. On the procedure:
as §1, §2

Series [11] concerns the target T3, BsoBI D246E. As to the kind of experiment: filter; 4 mM CaCl2; ±1578. To be noted: chain copies: 2 inferred; label: 33P 5' end. On the procedure: as §1, §2
For series [12], the target named is T2, BsoBI D246R. As to the kind of experiment: filter; 4 mM CaCl2; ±4.6. To be noted: chain copies: 2 inferred; label: 33P 5' end. The protocol:
as §1, §2

The target in series [13] is T2, BsoBI D246R. As to the kind of experiment: filter; 4 mM CaCl2; ±3.5. The settings on record: chain copies: 2 inferred; label: 33P 5' end. The protocol:
as §1, §2

The target of series [14] is T3, BsoBI D246E. As to the kind of experiment: filter; 4 mM CaCl2; ±683. To be noted: chain copies: 2 inferred; label: 33P 5' end. On the procedure: as §1, §2
Series [15] concerns the target T6, BsoBI D246C. As to the kind of experiment: filter; 4 mM CaCl2; ±4. The settings on record: chain copies: 2 inferred; label: 33P 5' end. The protocol: as §1, §3
For series [16], the target named is T4, BsoBI D246A. As to the kind of experiment: filter; 4 mM CaCl2; ±0.6. To be noted: chain copies: 2 inferred; label: 33P 5' end. The protocol: as §1, §2
In series [17] the target is T1, BsoBI restriction endonuclease. As to the kind of experiment: filter; 4 mM CaCl2, 100 mM NaCl, pH 7.5, room temp; ±1.2. The settings on record: tags: untagged, expressed from pRRS-bsoBIR in E. coli ER2683; chain copies: 2 inferred; label: 33P 5' end. The protocol: as §1, §2
For series [18], the target named is T5, BsoBI D246Y. As to the kind of experiment: filter; 4 mM CaCl2; ±2. The settings on record: chain copies: 2 inferred; label: 33P 5' end. The protocol: as §1, §2
Series [19] addresses T4, BsoBI D246A. As to the kind of experiment: filter; 4 mM CaCl2; ±97. To be noted: chain copies: 2 inferred; label: 33P 5' end. The protocol:
as §1, §2

Series [20] concerns the target T5, BsoBI D246Y. As to the kind of experiment: filter; 4 mM CaCl2; ±67. To be noted: chain copies: 2 inferred; label: 33P 5' end. The protocol:
as §1, §2

Series [21] deals with T3, BsoBI D246E. As to the kind of experiment: filter; 4 mM CaCl2; ±3347. To be noted: chain copies: 2 inferred; label: 33P 5' end. On the procedure:
as §1, §2

Series [22] has as its target T6, BsoBI D246C. As to the kind of experiment: filter; 4 mM CaCl2; ±10. The settings on record: chain copies: 2 inferred; label: 33P 5' end. The protocol:
as §1, §2

For series [23], the target named is T1, BsoBI restriction endonuclease. As to the kind of experiment: filter; 4 mM CaCl2, non-specific control; ±143. The settings on record: tags: untagged, expressed from pRRS-bsoBIR in E. coli ER2683; chain copies: 2 inferred; label: 33P 5' end. The protocol: as §1, §2
The target of series [24] is T2, BsoBI D246R. As to the kind of experiment: filter; 4 mM CaCl2; ±4.9; increased non-specific binding. The settings on record: chain copies: 2 inferred; label: 33P 5' end. On the procedure:
as §1, §2

B1: S1 (CTCGAG) (dsDNA)
DNA 1: GAGTGTTATGGGTAGCTCGAGTGAAGTGGGAATATC
DNA 2: GATATTCCCACTTCACTCGAGCTACCCATAACACTC
As to B1, the Kd (in general, the concentration at which binding is half-saturated) in series [1] is 0.0092 nM; with BsoBI D246R [2], 0.089 nM; in the series with BsoBI D246E [3], 80 nM; with BsoBI D246A [4], 0.219 nM; with BsoBI D246Y [5], 0.132 nM; with BsoBI D246C [6], 0.074 nM.

B2: S3 (CTCGGG/CCCGAG) (dsDNA)
DNA 1: B1 DNA 1 with A20G
DNA 2: B1 DNA 2 with T17C
Take B2: the Kd with BsoBI D246C [7] is 0.064 nM; in the series with BsoBI D246A [8], 0.017 nM; in the series with BsoBI D246Y [9], 0.057 nM; in series [10], 0.0053 nM; in the series with BsoBI D246E [11], 42.1 nM; in the series with BsoBI D246R [12], 0.039 nM.

B3: S2 (CCCGGG) (dsDNA)
DNA 1: B1 DNA 1 with T17C, A20G
DNA 2: B1 DNA 2 with T17C, A20G
Regarding B3, the Kd came to 0.038 nM with BsoBI D246R [13]; 2.84 nM with BsoBI D246E [14]; 0.03 nM with BsoBI D246C [15]; 0.0031 nM with BsoBI D246A [16]; 0.0066 nM in series [17]; 0.041 nM in the series with BsoBI D246Y [18].

B4: N (CATAAC, non-specific) (dsDNA)
DNA 1: B1 DNA 1 with T17A, C18T, G19A, G21C
DNA 2: B1 DNA 2 with C16G, C18T, G19A, A20T
In the case of B4, the Kd in the series with BsoBI D246A [19] worked out at 0.578 nM; in the series with BsoBI D246Y [20], 0.449 nM; with BsoBI D246E [21], 93.2 nM; with BsoBI D246C [22], 0.142 nM; in series [23], 1.45 nM; in the series with BsoBI D246R [24], 0.064 nM.
